One assay has as its target T1, C-myc-CCR4-RLuc8 (human) (UniProt P51679).
T1 sequence: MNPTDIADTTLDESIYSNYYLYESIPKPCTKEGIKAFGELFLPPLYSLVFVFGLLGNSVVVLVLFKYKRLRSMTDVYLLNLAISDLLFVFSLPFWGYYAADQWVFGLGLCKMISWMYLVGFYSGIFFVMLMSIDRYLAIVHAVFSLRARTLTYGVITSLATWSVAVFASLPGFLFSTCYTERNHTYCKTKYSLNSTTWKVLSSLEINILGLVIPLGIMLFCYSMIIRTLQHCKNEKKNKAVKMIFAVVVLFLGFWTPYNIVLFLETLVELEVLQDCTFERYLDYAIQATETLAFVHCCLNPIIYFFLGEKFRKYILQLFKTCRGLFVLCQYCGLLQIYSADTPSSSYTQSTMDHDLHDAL

For assay [1], the target named is C-myc-CCR7-RLuc8 (human) (UniProt P32248).
Chain of UniProt P32248 (P32248 25-378): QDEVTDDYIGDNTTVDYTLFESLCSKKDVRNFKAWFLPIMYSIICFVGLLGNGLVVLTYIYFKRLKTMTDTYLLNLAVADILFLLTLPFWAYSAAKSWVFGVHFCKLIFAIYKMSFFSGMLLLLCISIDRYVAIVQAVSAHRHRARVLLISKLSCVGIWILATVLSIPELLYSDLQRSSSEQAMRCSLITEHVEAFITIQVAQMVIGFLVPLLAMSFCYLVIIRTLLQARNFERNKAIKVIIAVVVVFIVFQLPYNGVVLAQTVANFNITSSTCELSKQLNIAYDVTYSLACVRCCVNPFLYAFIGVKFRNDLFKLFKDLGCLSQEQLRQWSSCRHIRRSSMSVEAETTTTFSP
Assay [2] shares this target. The conditions noted are these: scale: pEC50.
Assay [3] has as its target T2, C-myc-CCR10-RLuc8 (human) (UniProt P46092).
T2 sequence: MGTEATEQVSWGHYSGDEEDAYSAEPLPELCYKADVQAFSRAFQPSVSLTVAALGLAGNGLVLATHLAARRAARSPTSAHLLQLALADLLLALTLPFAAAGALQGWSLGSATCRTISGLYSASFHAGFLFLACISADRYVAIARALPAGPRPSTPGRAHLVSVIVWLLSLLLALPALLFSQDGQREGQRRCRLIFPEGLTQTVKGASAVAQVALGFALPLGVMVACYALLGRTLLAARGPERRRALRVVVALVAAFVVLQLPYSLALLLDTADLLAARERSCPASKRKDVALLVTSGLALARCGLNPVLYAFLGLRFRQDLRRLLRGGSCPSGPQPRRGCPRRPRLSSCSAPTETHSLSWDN

In turn, “CC chemokine ligand 17 (CCL17) (from UniProt Q92583 24-94)” had a β-arrestin2 recruitment to CCR4 (BRET): Emax relative to CCL22 in the assay with C-myc-CCR4-RLuc8 (human) of 28%.

As for “CCL21 (from UniProt O00585 24-134) (ligand)”, in the assay with C-myc-CCR7-RLuc8 (human) [1], the G protein activation via CCR7: Emax relative to CCL19 was determined as 103% and the cAMP inhibition via CCR7: Emax relative to CCL19 worked out at 99%. The molecule further gave a β-arrestin2 recruitment to CCR7 (BRET): pEC50 as printed in the text, assuming the same Emax value (differs from Table 1) with C-myc-CCR7-RLuc8 (human) [2] of 6.7.

B1: CCL28(4-108) (ligand)
chain: ILPIASSCCTEVSHHISRRLLERVNMCRIQRADGDCDLAAVILHVKRRRICVSPHNHTVKQWMKVQAAKKNGKGNVCHRKKHHGKRNSNRAHQGKHETYGHKTPY
In assay [3], B1 came in with a G protein activation via CCR10: maximum signal observed relative to the Emax of CCL27; curve not saturated of 80%; an NFAT Ca2+ reporter via CCR10: Emax relative to CCL27 of 106%; a cAMP inhibition via CCR10: maximum signal observed relative to the Emax of CCL27; curve not saturated of 64%; a β-arrestin2 recruitment to CCR10 (BRET): maximum signal observed relative to the Emax of CCL27; curve not saturated, potency ND of 82%.

Source of the values: PMC8073111.
